From publication PMC4852461, “A closed conformation of the Caenorhabditis elegans separase–securin complex” (Open Biology, 2016)

Biological target: T1, strep II-tagged full-length C. elegans separase (C. elegans, UniProt G5ED39 1-1262)
T1 construct: separase, Caenorhabditis elegans, full length (residues up to 1262; molecular weight 144.2 kDa); Vector pFBDM-strepII: double strepII tag with a PreScission cleavage site; also called strep II-tagged separase; source: Sf9 insect cells, co-expressed with securin, purified as complex (StrepTactin, SEC)
T1 sequence (looked up): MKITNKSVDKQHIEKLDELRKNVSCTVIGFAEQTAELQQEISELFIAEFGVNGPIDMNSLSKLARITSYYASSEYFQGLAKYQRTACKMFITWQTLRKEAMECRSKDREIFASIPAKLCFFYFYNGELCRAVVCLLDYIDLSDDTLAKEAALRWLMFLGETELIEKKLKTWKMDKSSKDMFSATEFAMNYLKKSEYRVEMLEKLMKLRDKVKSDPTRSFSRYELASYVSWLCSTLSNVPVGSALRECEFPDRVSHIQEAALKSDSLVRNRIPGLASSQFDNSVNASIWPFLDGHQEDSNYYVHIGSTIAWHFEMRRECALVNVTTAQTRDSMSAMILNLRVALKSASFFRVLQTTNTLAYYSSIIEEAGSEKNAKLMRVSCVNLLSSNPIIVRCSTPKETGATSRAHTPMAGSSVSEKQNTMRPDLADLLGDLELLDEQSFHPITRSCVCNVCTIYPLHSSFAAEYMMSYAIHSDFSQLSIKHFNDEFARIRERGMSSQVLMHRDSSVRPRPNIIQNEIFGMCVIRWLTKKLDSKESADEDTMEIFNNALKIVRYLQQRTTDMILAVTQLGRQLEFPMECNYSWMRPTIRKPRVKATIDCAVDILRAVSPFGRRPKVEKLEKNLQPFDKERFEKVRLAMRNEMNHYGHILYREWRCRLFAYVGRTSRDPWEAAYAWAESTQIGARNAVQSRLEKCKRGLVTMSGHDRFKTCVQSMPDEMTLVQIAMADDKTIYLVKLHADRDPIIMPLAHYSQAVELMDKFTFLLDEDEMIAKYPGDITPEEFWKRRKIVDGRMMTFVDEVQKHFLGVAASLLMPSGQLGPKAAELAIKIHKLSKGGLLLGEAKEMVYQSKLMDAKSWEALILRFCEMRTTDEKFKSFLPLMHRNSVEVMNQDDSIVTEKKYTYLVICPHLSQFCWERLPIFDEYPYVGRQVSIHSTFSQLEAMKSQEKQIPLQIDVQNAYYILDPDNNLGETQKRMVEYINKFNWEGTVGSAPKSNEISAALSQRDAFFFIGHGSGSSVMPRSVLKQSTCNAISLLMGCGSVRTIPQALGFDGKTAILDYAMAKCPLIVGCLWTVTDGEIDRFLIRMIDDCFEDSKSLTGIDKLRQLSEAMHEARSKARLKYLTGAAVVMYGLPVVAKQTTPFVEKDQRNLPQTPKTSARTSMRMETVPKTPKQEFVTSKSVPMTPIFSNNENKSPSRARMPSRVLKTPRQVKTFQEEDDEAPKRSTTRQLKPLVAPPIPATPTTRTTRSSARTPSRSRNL
Experiment: SEC-MALS; 1 mg/ml purified complex on Superose 6 10/300; 50 mM sodium phosphate, 100 mM NaCl, 20 mM NaF, 10% glycerol, 5 mM 2-mercaptoethanol, 3 mM sodium azide, pH 8.0
Settings: both partners purified

stoichiometry N: 1
B1: full-length C. elegans securin (co-expressed with StrepII-tagged separase) (natural protein, UniProt Q18235 1-244, looked up)
chain: MEDLNFEERGSTQIPASLQQHFSAKLGRQNELEKTPSRGGLGLVVNSSKTPGGKSLQSLASACKVPPSTKKNTIPIAFECYEDETDDQIADVATIKKTEKHPCSPIDTANRCETFDSLAADIEDDMLNLEDQDVVLSEDRPYGDVIDPAESEAEALAELGVEEWDSYPPIDPASRIGDDFNYVLRTEDFAEEGDVKLEETRHRTVIADIDEVKMSKAERNELFSMLADDLDSYDLLAEEANLPL
notes: it may be the same construct as m2; also called securin FL; source: Sf9 insect cells, co-expressed with StrepII-separase; in soluble lysate (pull-down) and purified as complex (StrepTactin, SEC)
